This is an account of results in patent US9556424B2, “1-deoxy-D-xylulose 5-phosphate synthase alleles responsible for enhanced terpene biosynthesis” (GENOPLANTE-VALOR, priority 2010, dated 2017).

One assay has as its system tobacco leaves. Put plainly: Agrobacterium-mediated transient co-expression of GES and DXS alleles in tobacco leaves, geraniol by GC-MS. The class given is in vivo, Nicotiana benthamiana. The note with it: 96 h after infiltration; for increase in geraniol accumulation in tobacco leaves: co-expression with GES, in average. An excerpt: In order to characterize DXS alleles activity, the inventors used Agrobacterium-mediated transient transformation of tobacco (Nicotiana benthamiana), which allows a fast and efficient gene expression in tobacco leaves (Batoko et al., 2000). This approach was already used successfully to characterize genes involved in grapevine secondary metabolism (Schmidlin et al., 2008; Hugueney et al., 2009). MoDXS1, MoDXS2 and GwDXS2 alleles were expressed in tobacco leaves, together with a cDNA encoding the enzyme geraniol synthase (GES) from basilicum (Ocimum basalicum) (Iijima et al., 2004). […] Thus, GC-M5 analyses of tobacco leaves co-expressing GES and DXS alleles allowed an accurate comparison of DXS alleles activity in planta.
Grapevine DXS cDNAs were amplified by PCR using the upstream primer 5′-[…] TACGCTCTCATTTCC-3′ (SEQ ID No11) and the downstream primer 5′-[…]-3′ (SEQ ID No12), and cloned into the pDONR207 Gateway compatible vector (Invitrogen, Carlsbad, Calif.) using Gateway BP clonase (Invitrogen) according to the manufacturer's instructions. DXS cDNAs were sequenced to verify that no mutation had been introduced. For Agrobacterium-mediated transient expression, DXS cDNAs were subsequently transferred into the GATEWAY binary vector pMDC32 (Curtis and Grossniklaus., 2003). Geraniol synthase cDNA from basilicum (Ocimum basilicum) (Iijima et al., 2004) was cloned into the GATEWAY binary vector pMDC83 (Curtis and Grossniklaus., 2003) and expressed as a GFP fusion protein. All constructs were introduced into Agrobacterium tumefaciens strain C58 (pMP90) by electroporation. Nicotiana benthamiana leaves were infiltrated with A. tumefaciens cultures (OD600 0.5) according to Voinnet et al. (2003). Leaf sectors were […] for terpene content 96 h after Agrobacterium infiltration.
For each sampling point, three replicates of terpenol analysis were performed. After weighing, tobacco leaf sectors (about 1 g) were ground under liquid nitrogen and then suspended in 2 mL of ultra-pure water. […]

A further assay deals with grape berries. Put plainly: Terpenol content in grape berry skins as a function of DXS alleles (MO and GW progeny). The class given is in vivo, Vitis vinifera. Particulars: by DXS genotype in MO and GW progeny, pool of 5 major terpenols. As for the experimental part: Isolation of Free and Bound Monoterpenols by Solid Phase Extraction (SPE)
For each sampling point, three replicates of terpenol analysis were performed. For each replicate, at least 25 berries were used. Seeds were removed and skins separated from mesocarps. After weighing, skins were ground under liquid nitrogen and then suspended in 40 mL of water after addition of 40 mg of sodium sulphite. The supernatant obtained after a 15-min centrifugation (11400 g at 4° C.) was passed through a glass fibre pre-filter and a glass filter. Twenty microliters of a 1 g/L 4-nonanol solution was added as external standard to allow the quantification of the main terpenols. Extraction of terpenols was adapted from Mateo et al. (1997), ethanol being used instead of methanol. The filtrate was passed through a 1 g phase C18 silica-bonded non-polar SPE column (BOND ELUT JR.), previously washed with 5 mL of methanol and 15 mL of ultra-pure water, at a rate of approximately one drop/s. The sample was then divided in two equal subsamples, one for the analysis of free and glycosidically bound monoterpenols and one for the analysis of free terpenols. Total fractions of free and bound monoterpenols were eluted with 4 mL of absolute ethanol. […]

Numbering of substitutions follows the chain as printed.

B1: MoDXS1: typical (wild type) DXS allele shared by Vitis vinifera cv Muscat Ottonel and Gewurztraminer (protein)
chain: MALCTLSFPAHFSQAAASNPQRLTPQCSHLFLGVDLQCQSQQRSKARKRPNGVCASLSDREEYHSQRPPTPLLDTINYPIHMKNLSVKELKQLADELRSDVVFNVSKTGGHLGSSLGVVELTVALHYVFNAPQDRILWDVGHQSYPHKILTGRRDQMHTMRQTDGLAGFTKRSESEYDCFGTGHSSTTISAGLGMAVGRDLKGKNNNVIAVIGDGAMTAGQAYEAMNNAGYLDSDMIVILNDNKQVSLPTATLDGPIPPVGALSSALSRLQSNRPLRELREVAKGVTKQIGGPMHELAAKVDEYARGMISGSGSTLFEELGLYYIGPVDGHNIDDLVAILKEVKSTKTTGPVLIHVVTEKGRGYPYAEKAADKYHGVTKFDPATGKQFKSSAPTQSYTTYFAEALIAEAEVDKDIVAIHAAMGGGTGLNLFHRRFPTRCFDVGIAEQHAVTFAAGLACEGIKPFCAIYSSFMQRAYDQVVHDVDLQKLPVKFAMDRAGLVGADGPTHCGAFDVAFMACLPNMVVMAPADEAELFHMVATAAAIDDRPSCFRYPRGNGVGVELPPGNKGIPIEVGRGRILIEGERVALLGYGTAVQSCLVASSLLEQHGLRITVADARFCKPLDHALIRSLAKSHEVLITVEEGSIGGFGSHVAQFLALNGLLDGTTKWSPMVLPDRYIDHGAPADQLAMAGLTPSHIAATVFNILGQTREALEIML
modifications: Vitis Vinifera
notes: typical (wild type) DXS allele shared by Vitis vinifera cv Muscat Ottonel and Gewurztraminer
Regarding B1, the geraniol biosynthesis result with tobacco leaves (co-expression with GES in tobacco leaves, versus GES alone) is recorded as “substantial increases”. The “terpenol content in grape berries” value in the assay with grape berries is recorded as “extremely low levels of terpenols”.

B2: GwDXS2: DXS allele of Vitis vinifera cv Gewurztraminer with R306→C mutation (protein)
chain: B1 chain with R306C
modifications: Vitis Vinifera
notes: DXS allele of Vitis vinifera cv Gewurztraminer with R306→C mutation
Consider B2, for which the “increase in geraniol accumulation in tobacco leaves” value in the assay with tobacco leaves is “three time increase”.

B3: MoDXS2: DXS allele of Vitis vinifera cv Muscat Ottonel with K284→N mutation (protein)
chain: B1 chain with K284N, V560I
modifications: Vitis Vinifera
notes: DXS allele of Vitis vinifera cv Muscat Ottonel with K284→N mutation
As to B3, the “increase in geraniol accumulation in tobacco leaves” value in the assay with tobacco leaves is reported as “three time increase”.
